Legend:
FGFR1 = FGFR1 (UniProt P11362); experiment: phosphorylation enrichment, bacterial display (enrichment ratio); higher = better substrate or ligand; peptides without Tyr show the background
c-Abl (mouse) = experiment: as above
EPHB2 = EPHB2 (UniProt P29323); experiment: as above
MERTK = MERTK (UniProt Q12866); experiment: as above
Fes = Fes (UniProt P07332); experiment: as above
AncSZ = experiment: as above
Jak2 = Jak2 (UniProt O60674); experiment: as above
Fyn = Fyn (UniProt P06241); experiment: as above
Hck = Hck (UniProt P08631); experiment: as above
Fer (mouse) = experiment: as above
EPHB1 = EPHB1 (UniProt P54762); experiment: as above
FGFR3 = FGFR3 (UniProt P22607); experiment: as above
c-Src = experiment: as above
Grb2 SH2 = Grb2 SH2 (UniProt P62993); experiment: SH2 binding enrichment of the phosphorylated peptide, bacterial display (enrichment ratio); higher = better substrate or ligand; peptides without Tyr show the background
c-Src SH2 = experiment: as above
SHP2-C SH2 = experiment: as above
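Wherever SH2 binding enrichment of the phosphorylated peptide, bacterial display is given: peptide library displayed on the E. coli surface as eCPX fusions, selected cells deep-sequenced, score is each peptide's frequency after selection divided by its frequency in the input.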
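Wherever phosphorylation enrichment, bacterial display is given: 11-residue human phosphosite peptides and single-mutation variants displayed on the E. coli surface, counted by deep sequencing, each peptide's frequency after selection divided by its frequency in the unselected input library; frequency after pTyr selection over input frequency; kinase dosed for 20-30% of maximal phosphorylation in three min.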

Jak2, sequence (O60674 whole entry, looked up): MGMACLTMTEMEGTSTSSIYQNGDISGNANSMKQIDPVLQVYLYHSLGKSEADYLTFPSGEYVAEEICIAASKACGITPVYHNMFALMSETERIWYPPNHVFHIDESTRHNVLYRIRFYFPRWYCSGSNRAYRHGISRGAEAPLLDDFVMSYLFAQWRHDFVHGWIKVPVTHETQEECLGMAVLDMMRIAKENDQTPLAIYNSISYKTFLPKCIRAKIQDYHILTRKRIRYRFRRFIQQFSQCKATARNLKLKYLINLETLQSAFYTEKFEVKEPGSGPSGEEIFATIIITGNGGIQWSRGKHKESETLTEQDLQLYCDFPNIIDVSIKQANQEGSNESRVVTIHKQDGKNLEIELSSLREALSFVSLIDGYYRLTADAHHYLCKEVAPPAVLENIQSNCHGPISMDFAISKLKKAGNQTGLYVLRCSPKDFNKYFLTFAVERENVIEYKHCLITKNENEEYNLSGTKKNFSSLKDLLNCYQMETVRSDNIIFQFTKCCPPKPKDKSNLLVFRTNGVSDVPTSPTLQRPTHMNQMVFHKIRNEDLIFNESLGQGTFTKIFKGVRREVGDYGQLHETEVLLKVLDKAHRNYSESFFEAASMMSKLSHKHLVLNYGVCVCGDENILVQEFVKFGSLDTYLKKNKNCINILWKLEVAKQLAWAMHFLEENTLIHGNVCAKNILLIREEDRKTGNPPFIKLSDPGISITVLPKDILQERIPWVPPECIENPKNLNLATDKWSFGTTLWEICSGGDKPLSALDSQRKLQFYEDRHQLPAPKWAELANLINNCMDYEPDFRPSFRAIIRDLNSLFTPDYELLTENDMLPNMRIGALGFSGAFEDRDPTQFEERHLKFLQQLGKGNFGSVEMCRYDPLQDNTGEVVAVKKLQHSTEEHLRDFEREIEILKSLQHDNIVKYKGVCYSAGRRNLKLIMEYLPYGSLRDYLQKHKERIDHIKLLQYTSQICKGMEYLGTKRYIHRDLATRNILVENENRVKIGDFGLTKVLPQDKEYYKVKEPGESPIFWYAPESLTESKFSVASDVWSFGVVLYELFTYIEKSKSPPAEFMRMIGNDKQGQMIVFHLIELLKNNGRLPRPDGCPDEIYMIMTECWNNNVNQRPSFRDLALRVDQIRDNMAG
FGFR3, sequence (P22607 whole entry, looked up): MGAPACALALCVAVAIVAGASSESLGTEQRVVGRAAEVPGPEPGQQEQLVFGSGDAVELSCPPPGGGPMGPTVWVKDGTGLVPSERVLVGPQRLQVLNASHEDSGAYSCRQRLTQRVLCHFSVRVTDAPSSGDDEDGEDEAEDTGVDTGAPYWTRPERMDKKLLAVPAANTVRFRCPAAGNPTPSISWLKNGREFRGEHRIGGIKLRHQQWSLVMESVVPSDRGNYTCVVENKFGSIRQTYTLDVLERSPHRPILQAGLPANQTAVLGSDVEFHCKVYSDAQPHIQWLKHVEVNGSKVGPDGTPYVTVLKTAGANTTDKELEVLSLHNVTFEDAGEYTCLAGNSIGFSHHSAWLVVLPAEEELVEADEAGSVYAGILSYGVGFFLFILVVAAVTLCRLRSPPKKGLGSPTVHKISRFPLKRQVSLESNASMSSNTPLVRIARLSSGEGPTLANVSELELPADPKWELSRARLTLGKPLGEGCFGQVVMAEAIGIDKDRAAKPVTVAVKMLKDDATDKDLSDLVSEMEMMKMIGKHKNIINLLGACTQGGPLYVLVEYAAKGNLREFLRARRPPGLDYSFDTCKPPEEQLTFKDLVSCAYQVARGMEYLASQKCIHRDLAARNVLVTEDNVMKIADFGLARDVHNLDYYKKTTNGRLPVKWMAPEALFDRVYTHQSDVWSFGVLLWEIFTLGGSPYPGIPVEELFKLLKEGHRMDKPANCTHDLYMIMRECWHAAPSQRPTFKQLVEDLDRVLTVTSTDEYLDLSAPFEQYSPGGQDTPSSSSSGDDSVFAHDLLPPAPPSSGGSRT
Grb2 SH2, sequence (P62993 whole entry, looked up): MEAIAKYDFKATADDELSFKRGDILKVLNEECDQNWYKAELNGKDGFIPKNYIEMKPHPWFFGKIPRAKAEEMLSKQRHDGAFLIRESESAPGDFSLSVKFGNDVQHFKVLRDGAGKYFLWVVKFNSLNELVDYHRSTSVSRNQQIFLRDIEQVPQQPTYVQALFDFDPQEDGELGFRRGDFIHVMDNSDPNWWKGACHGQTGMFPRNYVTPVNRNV
Fes, sequence (P07332 whole entry, looked up): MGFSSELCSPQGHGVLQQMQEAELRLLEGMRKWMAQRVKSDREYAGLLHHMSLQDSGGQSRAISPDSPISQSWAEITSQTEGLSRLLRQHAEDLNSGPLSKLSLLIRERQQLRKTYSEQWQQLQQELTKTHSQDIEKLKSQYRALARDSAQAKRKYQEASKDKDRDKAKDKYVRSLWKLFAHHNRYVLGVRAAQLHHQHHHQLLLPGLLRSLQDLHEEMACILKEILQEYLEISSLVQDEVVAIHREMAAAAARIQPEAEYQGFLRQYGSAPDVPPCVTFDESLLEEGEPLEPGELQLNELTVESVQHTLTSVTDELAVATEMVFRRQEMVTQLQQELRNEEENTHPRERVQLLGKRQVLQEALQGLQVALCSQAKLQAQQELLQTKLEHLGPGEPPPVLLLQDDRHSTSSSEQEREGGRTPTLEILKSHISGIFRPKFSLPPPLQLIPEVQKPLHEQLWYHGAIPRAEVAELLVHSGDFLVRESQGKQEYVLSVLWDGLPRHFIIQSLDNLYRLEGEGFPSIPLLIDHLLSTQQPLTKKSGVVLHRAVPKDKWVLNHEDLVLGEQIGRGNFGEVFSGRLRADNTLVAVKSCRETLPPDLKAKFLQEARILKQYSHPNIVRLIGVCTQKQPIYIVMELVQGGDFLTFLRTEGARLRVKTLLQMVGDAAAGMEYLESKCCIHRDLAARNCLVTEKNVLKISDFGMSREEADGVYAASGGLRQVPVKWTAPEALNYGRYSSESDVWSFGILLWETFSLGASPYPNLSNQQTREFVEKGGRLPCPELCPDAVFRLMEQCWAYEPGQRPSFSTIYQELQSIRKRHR
MERTK, sequence (Q12866 whole entry, looked up): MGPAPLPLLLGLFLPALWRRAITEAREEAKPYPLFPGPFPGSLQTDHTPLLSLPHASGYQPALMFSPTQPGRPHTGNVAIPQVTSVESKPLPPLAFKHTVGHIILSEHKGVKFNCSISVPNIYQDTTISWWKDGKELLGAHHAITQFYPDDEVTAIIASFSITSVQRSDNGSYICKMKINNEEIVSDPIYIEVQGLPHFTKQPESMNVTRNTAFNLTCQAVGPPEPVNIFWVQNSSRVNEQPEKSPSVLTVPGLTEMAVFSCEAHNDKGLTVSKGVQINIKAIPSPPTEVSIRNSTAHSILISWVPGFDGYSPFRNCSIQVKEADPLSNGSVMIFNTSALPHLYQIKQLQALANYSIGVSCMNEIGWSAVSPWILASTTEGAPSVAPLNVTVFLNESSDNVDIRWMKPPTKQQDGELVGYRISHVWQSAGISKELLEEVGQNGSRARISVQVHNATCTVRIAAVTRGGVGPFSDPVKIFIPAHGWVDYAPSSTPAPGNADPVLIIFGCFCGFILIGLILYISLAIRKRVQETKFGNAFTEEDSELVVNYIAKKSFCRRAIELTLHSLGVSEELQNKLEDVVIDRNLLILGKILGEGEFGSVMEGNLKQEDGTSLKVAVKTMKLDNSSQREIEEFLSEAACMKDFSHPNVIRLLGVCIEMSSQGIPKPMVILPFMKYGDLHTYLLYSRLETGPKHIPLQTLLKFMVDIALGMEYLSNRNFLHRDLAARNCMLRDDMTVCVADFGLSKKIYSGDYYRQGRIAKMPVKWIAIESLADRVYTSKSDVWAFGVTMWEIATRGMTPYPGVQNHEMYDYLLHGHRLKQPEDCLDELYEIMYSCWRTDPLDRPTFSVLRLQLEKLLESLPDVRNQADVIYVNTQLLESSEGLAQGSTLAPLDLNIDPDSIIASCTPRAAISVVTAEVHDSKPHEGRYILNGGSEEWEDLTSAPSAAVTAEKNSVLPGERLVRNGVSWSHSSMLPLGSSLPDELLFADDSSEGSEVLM
Hck, sequence (P08631 whole entry, looked up): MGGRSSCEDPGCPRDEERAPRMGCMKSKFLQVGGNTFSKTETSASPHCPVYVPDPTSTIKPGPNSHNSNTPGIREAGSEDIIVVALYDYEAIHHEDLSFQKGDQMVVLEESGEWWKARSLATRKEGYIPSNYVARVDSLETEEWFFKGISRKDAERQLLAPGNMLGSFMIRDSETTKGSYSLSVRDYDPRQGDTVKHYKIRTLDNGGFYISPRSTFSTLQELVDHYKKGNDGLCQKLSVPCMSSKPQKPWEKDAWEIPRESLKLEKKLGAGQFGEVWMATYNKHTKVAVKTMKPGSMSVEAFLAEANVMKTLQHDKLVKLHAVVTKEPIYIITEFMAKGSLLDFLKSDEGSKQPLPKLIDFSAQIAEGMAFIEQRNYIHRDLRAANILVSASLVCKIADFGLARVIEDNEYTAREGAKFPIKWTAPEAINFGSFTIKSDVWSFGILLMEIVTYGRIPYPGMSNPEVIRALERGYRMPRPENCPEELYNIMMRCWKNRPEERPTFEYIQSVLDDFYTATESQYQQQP
Fyn, sequence (P06241 whole entry, looked up): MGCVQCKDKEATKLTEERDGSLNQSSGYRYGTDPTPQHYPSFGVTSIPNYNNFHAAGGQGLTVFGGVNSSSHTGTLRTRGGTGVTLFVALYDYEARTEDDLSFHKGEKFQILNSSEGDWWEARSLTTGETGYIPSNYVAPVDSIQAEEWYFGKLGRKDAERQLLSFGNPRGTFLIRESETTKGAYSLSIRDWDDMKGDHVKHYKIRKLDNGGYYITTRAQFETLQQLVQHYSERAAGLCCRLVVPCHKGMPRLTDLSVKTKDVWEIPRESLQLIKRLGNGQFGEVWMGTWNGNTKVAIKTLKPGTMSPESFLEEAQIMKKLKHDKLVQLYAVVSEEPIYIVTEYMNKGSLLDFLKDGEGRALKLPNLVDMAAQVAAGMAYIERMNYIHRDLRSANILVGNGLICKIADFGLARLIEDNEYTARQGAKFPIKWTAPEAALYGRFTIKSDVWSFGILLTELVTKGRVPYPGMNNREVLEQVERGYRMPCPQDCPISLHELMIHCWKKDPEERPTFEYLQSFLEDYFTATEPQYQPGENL

| Sequence | phosphorylation enrichment (FGFR1) | phosphorylation enrichment (c-Abl (mouse)) | phosphorylation enrichment (EPHB2) | phosphorylation enrichment (MERTK) | phosphorylation enrichment (Fes) | phosphorylation enrichment (AncSZ) | phosphorylation enrichment (Jak2) | phosphorylation enrichment (Fyn) | phosphorylation enrichment (Hck) | phosphorylation enrichment (Fer (mouse)) | phosphorylation enrichment (EPHB1) | phosphorylation enrichment (FGFR3) | phosphorylation enrichment (c-Src) | SH2 binding enrichment (Grb2 SH2) | SH2 binding enrichment (c-Src SH2) | SH2 binding enrichment (SHP2-C SH2) |
| --- | --- | --- | --- | --- | --- | --- | --- | --- | --- | --- | --- | --- | --- | --- | --- | --- |
| EFQLPYFNTVP [BMPR1A_Y457_M460T_YF] | 0.682 | 0.615 | 0.549 | 0.454 | 0.935 | 0.879 | 1.08 | 0.454 | 0.523 | 0.423 | 0.523 | 0.541 | 1.26 | 1.27 | 0.667 | 0.741 |
| YRTPGYREVVI [TNS2_Y673_A670T] | 0.42 | 1.23 | 0.453 | 0.472 | 0.721 | 0.799 | 0.587 | 0.425 | 0.341 | 0.399 | 0.358 | 0.447 | 0.465 | 0.941 | 0.753 | 1.03 |
| WDLSEYSYKDP [ITGA3_Y237] | 0.513 | 0.614 | 0.568 | 0.416 | 0.998 | 1.85 | 0.997 | 0.914 | 0.673 | 0.449 | 0.424 | 0.631 | 0.916 | 0.932 | 0.878 | 0.704 |
| RHSGSYLVTSV [APC_Y2838] | 0.438 | 0.611 | 0.559 | 0.682 | 0.863 | 0.759 | 0.963 | 0.431 | 0.616 | 0.51 | 0.505 | 0.451 | 0.463 | 0.791 | 0.604 | 0.914 |
| LLINKYGLSAH [SCP2_Y151] | 0.488 | 0.559 | 0.669 | 0.372 | 0.99 | 0.877 | 0.838 | 0.443 | 0.428 | 0.619 | 0.71 | 0.708 | 0.428 | 0.869 | 0.349 | 0.821 |
| VSYDEYRYRSF [CFTR_Y515_V520F] | 0.486 | 0.916 | 0.467 | 0.522 | 0.951 | 0.89 | 0.983 | 0.548 | 0.598 | 0.435 | 0.69 | 0.606 | 0.939 | 0.72 | 0.676 | 0.717 |
| YRNKPYISWPS [CDC42BPB_Y1638_S1633Y] | 0.394 | 0.401 | 0.461 | 0.449 | 0.635 | 0.547 | 0.697 | 0.41 | 0.606 | 0.394 | 0.45 | 0.46 | 0.522 | 1.87 | 1.29 | 1.64 |
| TRSYDYMEGGD [FGF7_Y58] | 0.486 | 0.586 | 0.593 | 0.45 | 1.03 | 1.02 | 0.802 | 0.458 | 0.488 | 0.456 | 0.58 | 0.731 | 0.447 | 0.871 | 6.41 | 0.538 |

— the supplement of paper PMC10065799, “High-throughput profiling of sequence recognition by tyrosine kinases and SH2 domains using bacterial peptide display” (eLife, 2023)
